We go through 10 molecules from patent US20210347865A1 (STATEN BIOTECHNOLOGY B V, published 2021).

In general, koff refers to the rate constant with which the complex falls apart. Usually Kd stands for a measure of binding affinity in units of concentration. As usually defined, the kon is a measure of how fast the partners come together.

The target of assay [1] is T1, recombinant cynomolgus ApoC3 (cynomolgus monkey, UniProt P18659 21-99, biotinylated in the captured-antigen assays (Tables 6 and 8); sites not stated).
T1 construct: No cleavage site is stated, so none is applied; also called rcyApoC3; bio-rcyApoC3
As to the kind of experiment: SPR, biotinylated antigen captured on SA chip, scFv periplasmic extract injected, pH 7.4. For orientation: In SPR one partner is held on a chip, and binding of the other changes the refractive index at the surface.

The target in assay [2] is T2, native human ApoC3 (human, UniProt P02656 21-99, biotinylated in the captured-antigen assays (Tables 6 and 8); sites not stated).
T2 construct: also called nhuApoC3; native huApoC3
The assay is described as above.

The target in assay [3] is T2, native human ApoC3. As to the kind of experiment: SPR, biotinylated antigen captured on streptavidin chip, IgG as analyte, pH 7.4.
Assay [4] has as its target T1, recombinant cynomolgus ApoC3. Description: SPR, antigen immobilized on CM5 chip, IgG as analyte, pH 7.4.
Assay [5] concerns the target T2, native human ApoC3. The description is as above.
Assay [6] deals with T2, native human ApoC3. Description: SPR, IgG captured via anti-human Fc, ApoC3 analyte 200 nM. How it is done: (§1) Immobilization was performed in accordance with the method provided by Biacore in the NHS/EDC kit (Biacore AB). Briefly, after activation of the chip, a solution of 30 μg/ml anti-human Fcγ antibody in 10 mM acetate buffer with pH 5.0 was injected until the surface density reached approximately 10,000 RU. […] Following antibody capture, 100 μl of HBS-EP buffer was injected and passed through the flow cells at 30 μl/min. To bind target, 60 μl of 400 nM, 200 nM, 100 nM, or 50 nM ApoC3 protein in HBS-EP buffer was injected. An off-rate wash was performed by injection of HBS-EP buffer at 30 μl/min for 5 min. After dissociation, the flow cell surfaces were regenerated by injecting 20 μl of 10 mM glycine at pH 1.5.
(§2) The resulting sensorgrams were analysed with BIAevaluation 4.1 software using the Langmuir 1:1 binding model to derive binding kinetics. Data was zero adjusted and the reference cell sensorgrams were subtracted. A no-analyte blank assay was used for double referencing the sensorgrams corresponding to nhuApoC3 and rcyApoC3 injections. The dissociation and association phase sensorgrams were fitted separately for the 4 different concentration curves. Sensorgrams were excluded from the fitting if maximum RU values were below the limit of detection (i.e., <5 RU). SPR signals were too low to calculate kinetic parameters for […].

For assay [7], the target named is T1, recombinant cynomolgus ApoC3. Description: SPR, IgG captured via anti-human Fc, ApoC3 analyte 400 nM. How it is done: as §1, §2
The target in assay [8] is T2, native human ApoC3. The description is as above. The method, then:
as §1, §2

Assay [9] addresses T2, native human ApoC3. As to the kind of experiment: SPR, IgG captured via anti-human Fc, ApoC3 analyte 100 nM. How it is done:
as §1, §2

Assay [10] concerns the target T2, native human ApoC3. As to the kind of experiment: SPR, IgG captured via anti-human Fc, ApoC3 analyte 50 nM. How it is done: as §1, §2
The target in assay [11] is T1, recombinant cynomolgus ApoC3. Description: SPR, biotinylated antigen captured on streptavidin chip, IgG as analyte, pH 7.4.

T2 sequence (P02656 21-99): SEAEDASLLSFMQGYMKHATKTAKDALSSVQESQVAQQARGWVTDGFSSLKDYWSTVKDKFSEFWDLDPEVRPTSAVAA
T1 sequence (P18659 21-99 limits assumed): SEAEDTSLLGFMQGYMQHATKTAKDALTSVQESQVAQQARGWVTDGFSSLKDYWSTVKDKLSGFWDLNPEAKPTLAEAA

B1: 29B03 scFv (scFv, part only; not given: scFv linker, domain order, c-myc tag, V domains shown, not shown: another chain or arm of the molecule; small tags and cut ends)
VH: QLQLVESGGGLVQPGGSLRLSCAASGFTFGTYSMRWVRQVPRKALEWVSSISTDGGGTAYRDSVKGRFTISRDNAKNTLYLQMNNLKPEDTAIYYCVIAGYSDWGQGTQVTVSS
VL: DVVLTQTPGSLSVVPGESASISCKAGQNLVHPDGKTYLYWLLQKPGQSPQRLIYQVSNRDSGVPDRFTGSGSGTDFTLKISGVKVEDAGVYYCAQGTYWPKTFGQGTKLEIK
B1: the R0 in assay [1] amounted to 122 RU; in assay [2], 930 RU. Moreover, the koff in assay [1] was determined as 0.0418 s⁻¹; in assay [2], 0.000572 s⁻¹.

B2: 29F10 scFv (scFv, part only; not given: scFv linker, domain order, c-myc tag, V domains shown, not shown: another chain or arm of the molecule; large carriers; small tags and cut ends)
VH: QLQLVESGGGLVQPGGSLRLSCAASGFTFGTYSMRWVRQVPRKALEWVSSISTDGGGTAYRDSVKGRFTISRDNAKNTLYLQMNNLKPEDTAIYYCVIAGYSDWGQGTQVTVSS
VL: DVVLTQTPGSLSVVPGEPASVSCKASQSLVHPDGKTYLYWLLQKPGQSPQRLIYQVSNRGSGVPDRFTGSGSGTDFTLEISGVKAEDAGVYYCAQGTYWPKTFGQGTKLEIK
As for B2, in assay [1], the R0 was determined as 52 RU and the koff amounted to 0.059 s⁻¹. In assay [2], this molecule came in with an R0 of 808 RU and a koff of 0.00144 s⁻¹.

B3: 29A05 scFv (scFv, part only; not given: scFv linker, domain order, c-myc tag, V domains shown, not shown: another chain or arm of the molecule; small tags and cut ends)
VH: QLQLVESGGGLVQPGGSLRLSCAASGFTFGTYSMRWVRQVPRKALEWVSSISTDGGGTAYRDSVKGRFTISRDNAKNTLYLQMNNLKPEDTAIYYCVIAGYSDWGQGTQVTVSS
VL: DVVLTQTPGSLSVVPGESASISCKASQSLVYSDGKTYLYWLLQKPGQSPQRLIYQVSNRDSGVPDRFTGSGSGTDFTLKISGVKVEDAGVYYCAQGTYWPKTFGQGTKLEIK
Consider B3, for which, in [1], the R0 stood at 145 RU and the koff turned out to be 0.0146 s⁻¹. In assay [2], this molecule had an R0 of 545 RU and a koff of 0.0069 s⁻¹.

B4: 30D10 IgG (antibody, V domains shown)
VH: QLQLVESGGGLVQPGGSLRLSCAASGFTFGTYSMRWVRQVPRKALEWVSSISTDGGGTAYRDSVKGRFTISRDNAKNTLYLQMNNLKPEDTAIYYCVIAGYSDWGQGTQVTVSS
VL: DVVLTQTPGSLSVVPGESASISCTASQSLRHSDGRTYLYWLRQKPGQSPQRLIKRVSTRDPGVPDRFTGSGSGTDFTLKISGVRAEDAGVYYCAQGTYYPLTFGQGTKVELK
Regarding B4, in assay [3], the Kd came to 0.1 nM, the koff stood at 0.000126 s⁻¹ and the kon was found to be 1.29e+06 M⁻¹ s⁻¹. For the same molecule, the binding result in [4] is “no binding”. In assay [5], this molecule yielded a Kd of 0.15 nM, a koff of 0.000231 s⁻¹ and a kon of 1.5e+06 M⁻¹ s⁻¹.

B5: 30D10 scFv (scFv, part only; not given: scFv linker, domain order, c-myc tag, V domains shown, not shown: another chain or arm of the molecule; small tags and cut ends)
VH: QLQLVESGGGLVQPGGSLRLSCAASGFTFGTYSMRWVRQVPRKALEWVSSISTDGGGTAYRDSVKGRFTISRDNAKNTLYLQMNNLKPEDTAIYYCVIAGYSDWGQGTQVTVSS
VL: DVVLTQTPGSLSVVPGESASISCTASQSLRHSDGRTYLYWLRQKPGQSPQRLIKRVSTRDPGVPDRFTGSGSGTDFTLKISGVRAEDAGVYYCAQGTYYPLTFGQGTKVELK
Consider B5, for which the koff in assay [1] amounted to 0.0436 s⁻¹. In [2], this molecule registered an R0 of 695 RU and a koff of 0.00123 s⁻¹.

B6: 5E5 WT scFv (scFv, part only; not given: scFv linker, domain order, c-myc tag, V domains shown, not shown: another chain or arm of the molecule; small tags and cut ends)
VH: QLQLVESGGGLVQPGGSLRLSCAASGFTFGTYSMRWVRQVPRKALEWVSSISTDGGGTAYRDSVKGRFTISRDNAKNTLYLQMNNLKPEDTAIYYCVIAGYSDWGQGTQVTVSS
VL: ATMLTQSPGSLSVVPGESASISCKTSQGLVHSDGKTYFYWFLQKPGQSPQQLIYQVSNRASGVPDRFTGSGSGTDFTLKISGVKAEDAGVYYCAQGTYYPHTFGSGTRLEIK
For B6, the koff in assay [1] came out at 0.0391 s⁻¹. In assay [2], this molecule had an R0 of 854 RU and a koff of 0.000964 s⁻¹.

B7: 29G02 scFv (scFv, part only; not given: scFv linker, domain order, c-myc tag, V domains shown, not shown: another chain or arm of the molecule; small tags and cut ends)
VH: QLQLVESGGGLVQPGGSLRLSCAASGFTFGTYSMRWVRQVPRKALEWVSSISTDGGGTAYRDSVKGRFTISRDNAKNTLYLQMNNLKPEDTAIYYCVIAGYSDWGQGTQVTVSS
VL: DVVLTQTPGSLSVVPGESASISCKATQSLVHIDGKTYLYWLLQKPGQSPQRLIYQVSTRDSGVPDRFTGAGSGAEFTLKISGVKAEDAGVYYCAQDTYSTKTFGQGTKLEIK
Consider B7, for which, in assay [1], the R0 turned out to be 102 RU and the koff amounted to 0.00721 s⁻¹. In assay [2], this molecule showed an R0 of 833 RU and a koff of 0.00435 s⁻¹.

B8: 29A06 scFv (scFv, part only; not given: scFv linker, domain order, c-myc tag, V domains shown, not shown: another chain or arm of the molecule; small tags and cut ends)
VH: QLQLVESGGGLVQPGGSLRLSCAASGFTFGTYSMRWVRQVPRKALEWVSSISTDGGGTAYRDSVKGRFTISRDNAKNTLYLQMNNLKPEDTAIYYCVIAGYSDWGQGTQVTVSS
VL: DVVLTQTPGSLSVVPGESASISCKASQNLVHSNGKTYLYWLLQKPGQSPQRLIYQVSNRGSEVPDRFTGSGSGTDFTLKISGVKAEDAGVYYCAQGTYWPKTFGQGTKLEIK
Turning to B8, in assay [1], the R0 came to 125 RU and the koff was 0.0406 s⁻¹. Also, in [2], the R0 was 1010 RU and the koff was 0.00162 s⁻¹.

B9: 29G11 scFv (scFv, part only; not given: scFv linker, domain order, c-myc tag, V domains shown, not shown: another chain or arm of the molecule; small tags and cut ends)
VH: QLQLVESGGGLVQPGGSLRLSCAASGFTFGTYSMRWVRQVPRKALEWVSSISTDGGGTAYRDSVKGRFTISRDNAKNTLYLQMNNLKPEDTAIYYCVIAGYSDWGQGTQVTVSS
VL: DVVLTQTPGSLSVVPGGSASISCKASQSLVYSDGKTYLYWLRQKPGQSPQRLIYQVSNRPSGVPDRFTGSGSGTDFTLKISGVKAEDAGVYYCAQDTYSTKTFGQGTKLEIK
Turning to B9, the R0 amounted to 92.7 RU in assay [1] and 809 RU in assay [2]. Moreover, the koff was found to be 0.00714 s⁻¹ in [1] and 0.00633 s⁻¹ in assay [2].

B10: 29A06 IgG (antibody, V domains shown)
VH: QLQLVESGGGLVQPGGSLRLSCAASGFTFGTYSMRWVRQVPRKALEWVSSISTDGGGTAYRDSVKGRFTISRDNAKNTLYLQMNNLKPEDTAIYYCVIAGYSDWGQGTQVTVSS
VL: DVVLTQTPGSLSVVPGESASISCKASQNLVHSNGKTYLYWLLQKPGQSPQRLIYQVSNRGSEVPDRFTGSGSGTDFTLKISGVKAEDAGVYYCAQGTYWPKTFGQGTKLEIK
With B10, the Kd in assay [6] came to 0.91 nM; in assay [7], 919 nM; in assay [8], 0.973 nM; in assay [9] it was 0.814 nM; in assay [10] it was 0.755 nM; in [11], 0.46 nM. Also, the results for the Kd in assay [3], in assay [4] and in assay [5] were 0.04 nM, 0.15 nM and 0.07 nM, respectively. Besides, the koff stood at 0.00032 s⁻¹ in assay [6]; 0.0207 s⁻¹ in [7]; 0.000327 s⁻¹ in [8]; 0.000317 s⁻¹ in assay [9]; 0.000314 s⁻¹ in assay [10]; 0.000169 s⁻¹ in assay [11]. Further, the koff in assay [3] was 4.2e-05 s⁻¹; in [4], 7.5e-05 s⁻¹; in assay [5], 6.5e-05 s⁻¹. Moreover, the kon is 351000 M⁻¹ s⁻¹ in assay [6]; 22500 M⁻¹ s⁻¹ in assay [7]; 336000 M⁻¹ s⁻¹ in assay [8]; 390000 M⁻¹ s⁻¹ in assay [9]; 416000 M⁻¹ s⁻¹ in assay [10]; 370000 M⁻¹ s⁻¹ in assay [11]. Further, the kon in assay [3] came to 960000 M⁻¹ s⁻¹; in assay [4], 500000 M⁻¹ s⁻¹; in assay [5] it was 950000 M⁻¹ s⁻¹.
